Source: patent publication US20050037965A1

Target: human p21-activated kinase 1 (PAK1) (human) (UniProt Q13153)
Assay: cell-based or functional assay

inhibition of IL-1β induced expression of PGE2 in SW1353 cells (ELISA of supernatants): > 50%
inhibition of IL-1β-induced expression of MMP13 in SW1353 cells (ELISA of supernatants): 55%
inhibition of basal MMP13 expression in non-stimulated SW1353 cells (ELISA of supernatants): > 80%
Substance: PAK1 inhibitory domain (PAK1-ID), HA-tagged PAK1 residues 83 to 149
